Data as given in patent publication EP4786492A1.
Substitutions are numbered along the chain they refer to.

Experiments:
[1] = target: human DLL3 protein expressed on CHO-K1 recombinant cells (human DLL3 extracellular segment fused to EpCAM transmembrane and intracellular regions) (human) (UniProt Q9NYJ7); assay: FACS, CHO-K1 hDLL3 cells, 100 nM antibody
[2] = target: monkey DLL3 on CHO-K1-cyno DLL3 cells (cynomolgus monkey); assay: FACS, CHO-K1-cyno DLL3 cells, 0.0064 nM antibody
[3] = target: DLL3 endogenously expressed on NCI-H82 cells (UniProt Q9NYJ7); assay: FACS on NCI-H82 cells; antibody 0.0064 nM
Sequence of DLL3 endogenously expressed on NCI-H82 cells (Q9NYJ7 27-618): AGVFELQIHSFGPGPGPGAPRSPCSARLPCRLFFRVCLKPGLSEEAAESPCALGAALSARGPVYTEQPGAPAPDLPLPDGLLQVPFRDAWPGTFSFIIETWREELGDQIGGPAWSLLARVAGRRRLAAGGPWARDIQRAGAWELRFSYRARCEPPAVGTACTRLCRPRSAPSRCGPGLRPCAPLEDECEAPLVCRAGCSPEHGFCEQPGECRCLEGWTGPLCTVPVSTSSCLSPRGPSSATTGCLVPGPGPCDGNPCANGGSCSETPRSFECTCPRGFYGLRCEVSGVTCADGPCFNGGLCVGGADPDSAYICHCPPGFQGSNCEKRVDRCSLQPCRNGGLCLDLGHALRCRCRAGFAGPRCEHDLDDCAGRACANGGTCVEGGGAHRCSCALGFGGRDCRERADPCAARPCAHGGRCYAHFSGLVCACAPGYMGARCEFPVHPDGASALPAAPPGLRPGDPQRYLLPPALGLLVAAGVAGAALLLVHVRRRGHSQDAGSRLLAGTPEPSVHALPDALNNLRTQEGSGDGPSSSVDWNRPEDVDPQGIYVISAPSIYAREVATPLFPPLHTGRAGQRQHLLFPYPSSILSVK

[4] = target: monkey DLL3 on CHO-K1-cyno DLL3 cells (cynomolgus monkey); assay: FACS, CHO-K1-cyno DLL3 cells, 0.00128 nM antibody
[5] = target: human DLL3 protein expressed on CHO-K1 recombinant cells (human DLL3 extracellular segment fused to EpCAM transmembrane and intracellular regions) (human) (UniProt Q9NYJ7); assay: FACS, CHO-K1 hDLL3 cells, 0.0064 nM antibody
[6] = target: DLL3 endogenously expressed on NCI-H82 cells (UniProt Q9NYJ7); assay: FACS on NCI-H82 cells; antibody 4 nM
[7] = target: mouse DLL3 on CHO-K1-mDLL3 cells (mouse) (UniProt O88516); assay: FACS, CHO-K1-mDLL3 cells, 0.032 nM antibody
Sequence of mouse DLL3 on CHO-K1-mDLL3 cells (mouse) (O88516 other isoform, or with tags, fused parts or gaps limits assumed): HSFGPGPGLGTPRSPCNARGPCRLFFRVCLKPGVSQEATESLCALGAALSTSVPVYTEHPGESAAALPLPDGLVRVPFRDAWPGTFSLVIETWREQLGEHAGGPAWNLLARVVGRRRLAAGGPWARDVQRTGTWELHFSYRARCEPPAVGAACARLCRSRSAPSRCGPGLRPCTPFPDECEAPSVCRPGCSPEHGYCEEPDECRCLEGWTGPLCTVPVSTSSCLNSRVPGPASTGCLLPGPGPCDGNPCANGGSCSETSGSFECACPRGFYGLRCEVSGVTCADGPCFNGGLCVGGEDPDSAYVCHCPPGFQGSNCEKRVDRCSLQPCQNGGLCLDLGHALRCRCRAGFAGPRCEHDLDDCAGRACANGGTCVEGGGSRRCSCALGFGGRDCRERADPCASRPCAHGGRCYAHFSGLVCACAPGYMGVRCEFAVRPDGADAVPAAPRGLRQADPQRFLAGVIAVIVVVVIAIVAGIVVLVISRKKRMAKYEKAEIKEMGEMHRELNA

[8] = target: mouse DLL3 on CHO-K1-mDLL3 cells (mouse) (UniProt O88516); assay: FACS, CHO-K1-mDLL3 cells, 4 nM antibody
[9] = target: human DLL3 protein expressed on CHO-K1 recombinant cells (human DLL3 extracellular segment fused to EpCAM transmembrane and intracellular regions) (human) (UniProt Q9NYJ7); assay: FACS, CHO-K1 hDLL3 cells, 20 nM antibody
[10] = target: human DLL3 protein expressed on CHO-K1 recombinant cells (human DLL3 extracellular segment fused to EpCAM transmembrane and intracellular regions) (human) (UniProt Q9NYJ7); assay: FACS, CHO-K1 hDLL3 cells, 4 nM antibody
[11] = target: mouse DLL3 on CHO-K1-mDLL3 cells (mouse) (UniProt O88516); assay: FACS, CHO-K1-mDLL3 cells, 0.16 nM antibody
[12] = target: monkey DLL3 on CHO-K1-cyno DLL3 cells (cynomolgus monkey); assay: FACS, CHO-K1-cyno DLL3 cells, 0.8 nM antibody
[13] = target: human delta-like ligand 3 (DLL3) on SHP77 cells (human) (UniProt Q9NYJ7); assay: FACS on SHP77 cells
Sequence of human delta-like ligand 3 (DLL3) on SHP77 cells (human) (Q9NYJ7 27-618, stated change not applied): as the sequence (Q9NYJ7 27-618) above

[14] = target: human DLL3 protein expressed on CHO-K1 recombinant cells (human DLL3 extracellular segment fused to EpCAM transmembrane and intracellular regions) (human) (UniProt Q9NYJ7); assay: FACS, CHO-K1 hDLL3 cells, 0.00128 nM antibody
[15] = target: DLL3 endogenously expressed on NCI-H82 cells (UniProt Q9NYJ7); assay: FACS on NCI-H82 cells; antibody 20 nM
[16] = target: monkey DLL3 on CHO-K1-cyno DLL3 cells (cynomolgus monkey); assay: FACS, CHO-K1-cyno DLL3 cells, 0.032 nM antibody
[17] = target: mouse DLL3 on CHO-K1-mDLL3 cells (mouse) (UniProt O88516); assay: FACS, CHO-K1-mDLL3 cells, 0.0064 nM antibody
[18] = target: mouse DLL3 on CHO-K1-mDLL3 cells (mouse) (UniProt O88516); assay: FACS, CHO-K1-mDLL3 cells, 0.00128 nM antibody
[19] = target: DLL3 endogenously expressed on NCI-H82 cells (UniProt Q9NYJ7); assay: FACS on NCI-H82 cells; antibody 100 nM
[20] = target: human DLL3 protein expressed on CHO-K1 recombinant cells (human DLL3 extracellular segment fused to EpCAM transmembrane and intracellular regions) (human) (UniProt Q9NYJ7); assay: FACS, CHO-K1 hDLL3 cells, 0.032 nM antibody
[21] = target: monkey DLL3 on CHO-K1-cyno DLL3 cells (cynomolgus monkey); assay: FACS, CHO-K1-cyno DLL3 cells, 4 nM antibody
[22] = target: mouse DLL3 on CHO-K1-mDLL3 cells (mouse) (UniProt O88516); assay: FACS, CHO-K1-mDLL3 cells, 0.8 nM antibody
[23] = target: mouse DLL3 on CHO-K1-mDLL3 cells (mouse) (UniProt O88516); assay: FACS, CHO-K1-mDLL3 cells, 100 nM antibody
[24] = target: human DLL3 protein (extracellular segment, His tag) (human) (UniProt Q9NYJ7); assay: SPR (Biacore 8K), antibody captured on Protein A chip, DLL3 antigen in solution, 1:1 Langmuir fit
Sequence of human DLL3 protein (extracellular segment, His tag) (human) (Q9NYJ7 27-492): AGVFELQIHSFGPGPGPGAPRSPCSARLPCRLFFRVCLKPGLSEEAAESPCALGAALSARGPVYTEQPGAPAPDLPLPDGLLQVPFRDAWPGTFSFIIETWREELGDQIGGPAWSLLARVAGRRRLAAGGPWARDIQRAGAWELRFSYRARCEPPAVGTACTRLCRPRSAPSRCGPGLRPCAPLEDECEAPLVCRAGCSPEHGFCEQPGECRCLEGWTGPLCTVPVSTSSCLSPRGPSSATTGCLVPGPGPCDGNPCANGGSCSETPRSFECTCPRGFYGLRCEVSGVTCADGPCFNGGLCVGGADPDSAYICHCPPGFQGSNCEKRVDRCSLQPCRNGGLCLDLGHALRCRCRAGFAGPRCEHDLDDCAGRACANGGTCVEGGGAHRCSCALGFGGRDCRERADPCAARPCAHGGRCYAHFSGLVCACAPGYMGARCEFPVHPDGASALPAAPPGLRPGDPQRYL

[25] = target: monkey DLL3 on CHO-K1-cyno DLL3 cells (cynomolgus monkey); assay: FACS, CHO-K1-cyno DLL3 cells, 100 nM antibody
[26] = target: human DLL4 protein (Acro, Cat. No. DL4-H5227) (human) (UniProt Q9NR61); assay: ELISA, coated hDLL4; maximum over 0.1, 1, 10, 100 nM antibody
Sequence of human DLL4 protein (Acro, Cat. No. DL4-H5227) (human) (Q9NR61 27-524 limits assumed): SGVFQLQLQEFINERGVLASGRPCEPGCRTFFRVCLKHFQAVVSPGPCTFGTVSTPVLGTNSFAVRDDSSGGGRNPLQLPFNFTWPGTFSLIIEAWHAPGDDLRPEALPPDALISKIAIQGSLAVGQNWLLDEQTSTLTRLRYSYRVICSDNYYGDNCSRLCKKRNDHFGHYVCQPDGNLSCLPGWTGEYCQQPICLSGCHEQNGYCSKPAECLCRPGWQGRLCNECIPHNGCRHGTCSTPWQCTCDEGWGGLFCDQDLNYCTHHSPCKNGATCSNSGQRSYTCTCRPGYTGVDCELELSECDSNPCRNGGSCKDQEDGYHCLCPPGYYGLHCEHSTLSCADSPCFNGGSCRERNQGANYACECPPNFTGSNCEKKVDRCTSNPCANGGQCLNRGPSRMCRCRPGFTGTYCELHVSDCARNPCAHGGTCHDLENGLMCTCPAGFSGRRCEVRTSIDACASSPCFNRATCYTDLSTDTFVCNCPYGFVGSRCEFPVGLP

[27] = target: human DLL3 protein expressed on CHO-K1 recombinant cells (human DLL3 extracellular segment fused to EpCAM transmembrane and intracellular regions) (human) (UniProt Q9NYJ7); assay: FACS, CHO-K1 hDLL3 cells, 0.8 nM antibody
[28] = target: DLL3 endogenously expressed on NCI-H82 cells (UniProt Q9NYJ7); assay: FACS on NCI-H82 cells; antibody 0.8 nM
[29] = target: DLL3 endogenously expressed on NCI-H82 cells (UniProt Q9NYJ7); assay: FACS on NCI-H82 cells; antibody 0.00128 nM
[30] = target: mouse DLL3 on CHO-K1-mDLL3 cells (mouse) (UniProt O88516); assay: FACS, CHO-K1-mDLL3 cells, 20 nM antibody
[31] = target: monkey DLL3 on CHO-K1-cyno DLL3 cells (cynomolgus monkey); assay: FACS, CHO-K1-cyno DLL3 cells, 0.16 nM antibody
[32] = target: human DLL3 protein expressed on CHO-K1 recombinant cells (human DLL3 extracellular segment fused to EpCAM transmembrane and intracellular regions) (human) (UniProt Q9NYJ7); assay: FACS, CHO-K1 hDLL3 cells, 0.16 nM antibody
[33] = target: DLL3 endogenously expressed on NCI-H82 cells (UniProt Q9NYJ7); assay: FACS on NCI-H82 cells; antibody 0.16 nM
[34] = target: monkey DLL3 on CHO-K1-cyno DLL3 cells (cynomolgus monkey); assay: FACS, CHO-K1-cyno DLL3 cells, 20 nM antibody
[35] = target: DLL3 endogenously expressed on NCI-H82 cells (UniProt Q9NYJ7); assay: FACS on NCI-H82 cells; antibody 0.032 nM
[36] = target: human DLL1 protein (Acro, Cat. No. DL1-H52H8) (human) (UniProt O00548); assay: ELISA, coated hDLL1; maximum over 0.1, 1, 10, 100 nM antibody
Sequence of human DLL1 protein (Acro, Cat. No. DL1-H52H8) (human) (O00548 18-540 limits assumed): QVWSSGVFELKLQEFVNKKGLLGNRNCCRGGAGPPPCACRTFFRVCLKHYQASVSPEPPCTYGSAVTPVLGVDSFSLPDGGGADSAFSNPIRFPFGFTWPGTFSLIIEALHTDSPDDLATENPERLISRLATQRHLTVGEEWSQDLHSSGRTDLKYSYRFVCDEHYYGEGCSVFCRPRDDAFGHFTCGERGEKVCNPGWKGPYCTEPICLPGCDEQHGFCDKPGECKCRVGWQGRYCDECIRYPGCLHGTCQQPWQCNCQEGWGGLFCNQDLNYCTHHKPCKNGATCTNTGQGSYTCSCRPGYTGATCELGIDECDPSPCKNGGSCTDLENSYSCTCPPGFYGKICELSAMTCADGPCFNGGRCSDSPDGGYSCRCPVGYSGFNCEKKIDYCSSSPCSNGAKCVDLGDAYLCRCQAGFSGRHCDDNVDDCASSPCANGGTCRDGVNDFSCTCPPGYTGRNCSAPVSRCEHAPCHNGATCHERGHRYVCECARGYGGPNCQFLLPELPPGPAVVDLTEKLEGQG

Sequence of monkey DLL3 on CHO-K1-cyno DLL3 cells (cynomolgus monkey) (chain, as listed by the source limits assumed): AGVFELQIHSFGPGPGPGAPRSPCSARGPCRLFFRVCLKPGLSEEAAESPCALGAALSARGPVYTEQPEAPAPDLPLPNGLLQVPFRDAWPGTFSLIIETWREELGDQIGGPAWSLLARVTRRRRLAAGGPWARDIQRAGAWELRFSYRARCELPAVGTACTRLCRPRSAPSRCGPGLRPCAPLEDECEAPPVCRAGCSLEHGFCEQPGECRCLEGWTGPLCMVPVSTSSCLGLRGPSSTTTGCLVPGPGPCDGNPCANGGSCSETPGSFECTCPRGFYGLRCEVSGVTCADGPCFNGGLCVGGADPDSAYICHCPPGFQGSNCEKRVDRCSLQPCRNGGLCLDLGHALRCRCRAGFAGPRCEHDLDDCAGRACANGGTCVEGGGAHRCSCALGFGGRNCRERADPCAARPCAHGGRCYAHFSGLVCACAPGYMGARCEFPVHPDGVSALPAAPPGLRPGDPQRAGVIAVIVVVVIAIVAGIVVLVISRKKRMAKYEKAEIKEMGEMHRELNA
Sequence of human DLL3 protein expressed on CHO-K1 recombinant cells (human DLL3 extracellular segment fused to EpCAM transmembrane and intracellular regions) (human) (Q9NYJ7 other isoform, or with tags, fused parts or gaps limits assumed): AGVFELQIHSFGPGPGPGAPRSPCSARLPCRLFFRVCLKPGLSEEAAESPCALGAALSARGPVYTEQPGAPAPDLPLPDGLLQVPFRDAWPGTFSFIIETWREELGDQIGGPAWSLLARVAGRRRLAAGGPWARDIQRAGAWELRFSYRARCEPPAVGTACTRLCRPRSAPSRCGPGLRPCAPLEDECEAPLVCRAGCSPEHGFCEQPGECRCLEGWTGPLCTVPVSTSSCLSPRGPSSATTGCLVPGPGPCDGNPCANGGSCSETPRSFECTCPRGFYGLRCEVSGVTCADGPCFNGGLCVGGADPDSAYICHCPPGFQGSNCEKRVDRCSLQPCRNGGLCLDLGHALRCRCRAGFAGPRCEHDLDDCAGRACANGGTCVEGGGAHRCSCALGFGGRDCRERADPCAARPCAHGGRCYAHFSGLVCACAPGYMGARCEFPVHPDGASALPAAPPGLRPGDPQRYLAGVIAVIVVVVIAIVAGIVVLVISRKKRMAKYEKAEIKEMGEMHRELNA

B1: Hab015VL4VH1b-hFc (scFv, part only; not given: VL-VH linker and human IgG1 Fc, V domains shown, not shown: another chain or arm of the molecule; a dimerising Fc or GST; small tags and cut ends)
VL: NIVLTQSPATLSLSPGERATLSCKASENVGTYVSWFQQKPGQSPRLLIYGASNRYTGIPARFSGSGSGTDFTLTISSLEPEDFAVYYCGQFYSFPSTFGGGTKVEIK
VH: EVQLVESGGGLVKPGGSLRLSCAASGITFSNFWMNWVRQAPGKGLEWVGQIRLKSEDYATHYAESVKGRFTISREDSKNTVYLQMNSLKTEDTAVYYCTTGYYFDYWGQGTTVTVSS
- MFI [1]: 11800 MFI
- MFI [2]: 163 MFI
- MFI [3]: 131
- MFI [4]: 117 MFI
- MFI [5]: 152 MFI
- MFI [6]: 1020
- MFI [7]: 172 MFI
- MFI [8]: 1120 MFI
- MFI [9]: 11300 MFI
- MFI [10]: 10300 MFI
- MFI [11]: 350 MFI
- MFI [12]: 4290 MFI
- MFI at 0.00128 nM [13]: 97 MFI
- MFI at 0.0064 nM [13]: 113 MFI
- MFI at 0.032 nM [13]: 169 MFI
- MFI at 0.16 nM [13]: 371 MFI
- MFI at 0.8 nM [13]: 720 MFI
- MFI at 4 nM [13]: 829 MFI
- MFI at 20 nM [13]: 962 MFI
- MFI at 100 nM [13]: 1190 MFI
- MFI [14]: 120 MFI
- MFI [15]: 1130
- MFI [16]: 389 MFI
- MFI [17]: 123 MFI
- MFI [18]: 114 MFI
- MFI [19]: 1410
- MFI [20]: 302 MFI
- MFI [21]: 6270 MFI
- MFI [22]: 813 MFI
- MFI [23]: 1490 MFI
- Kd [24]: 19.4 pM
- koff [24]: 3.49e-05 s⁻¹
- kon [24]: 1.8e+06 M⁻¹ s⁻¹
- MFI [25]: 7520 MFI
- Emax of OD450 nm binding value [26]: 0.67 OD450 nm
- MFI [27]: 4640 MFI
- MFI [28]: 914
- MFI [29]: 114
- MFI [30]: 1340 MFI
- MFI [31]: 1200 MFI
- MFI [32]: 937 MFI
- MFI [33]: 461
- MFI [34]: 6820 MFI
- MFI [35]: 218
- Emax of OD450 nm binding value [36]: 0.39 OD450 nm

B2: Hab015VL4VH6a-hFc (scFv, part only; not given: scFv linker and human IgG1 Fc, V domains shown, not shown: another chain or arm of the molecule; a dimerising Fc or GST; small tags and cut ends)
VL: B1 VL
VH: B1 VH with G42E, E56D
- MFI [1]: 12200 MFI
- MFI [2]: 153 MFI
- MFI [3]: 133
- MFI [4]: 118 MFI
- MFI [5]: 144 MFI
- MFI [6]: 1050
- MFI [7]: 170 MFI
- MFI [8]: 1260 MFI
- MFI [9]: 12400 MFI
- MFI [10]: 11200 MFI
- MFI [11]: 361 MFI
- MFI [12]: 4260 MFI
- MFI at 0.00128 nM [13]: 101 MFI
- MFI at 0.0064 nM [13]: 114 MFI
- MFI at 0.032 nM [13]: 173 MFI
- MFI at 0.16 nM [13]: 361 MFI
- MFI at 0.8 nM [13]: 692 MFI
- MFI at 4 nM [13]: 821 MFI
- MFI at 20 nM [13]: 943 MFI
- MFI at 100 nM [13]: 1270 MFI
- MFI [14]: 120 MFI
- MFI [15]: 1180
- MFI [16]: 352 MFI
- MFI [17]: 130 MFI
- MFI [18]: 118 MFI
- MFI [19]: 1550
- MFI [20]: 265 MFI
- MFI [21]: 6820 MFI
- MFI [22]: 884 MFI
- MFI [23]: 1590 MFI
- Kd [24]: 0.116 pM
- koff [24]: 2.03e-07 s⁻¹
- kon [24]: 1.75e+06 M⁻¹ s⁻¹
- MFI [25]: 7480 MFI
- Emax of OD450 nm binding value [26]: 0.64 OD450 nm
- MFI [27]: 4370 MFI
- MFI [28]: 913
- MFI [29]: 118
- MFI [30]: 1460 MFI
- MFI [31]: 1150 MFI
- MFI [32]: 861 MFI
- MFI [33]: 469
- MFI [34]: 7330 MFI
- MFI [35]: 211
- Emax of OD450 nm binding value [36]: 0.49 OD450 nm
